According to paper PMC9116133:
Each block holds one substance with its values, some of them ahead of it.

Key:
[1] = biological target: truncated zymogen of histo-aspartic protease (pro-tHAP) (P. falciparum); assay: crystal structure
[2] = biological target: truncated zymogen of plasmepsin I (pro-tPMI) (P. falciparum); assay: SAXS
[3] = biological target: truncated zymogen of plasmepsin II, wild type (pro-tPMII) (P. falciparum); assay: SEC

- stoichiometry N [1]: 2
Substance: truncated zymogen of histo-aspartic protease (pro-tHAP) (enzyme)

- stoichiometry N [2]: 2
Substance: truncated zymogen of plasmepsin I (pro-tPMI) (enzyme)

- stoichiometry N [3]: 2
Substance: truncated zymogen of plasmepsin II, wild type (pro-tPMII) (enzyme)
